The text below walks through data of the nanobody polyreactivity screen of Harvey et al. (2022).

The nature of this data set: yeast display, Sf9 membrane polyspecificity reagent, FACS + sequencing; frameworks hold sequencing errors. Summed up: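 Galactose induction of a Saccharomyces cerevisiae BJ5465 synthetic nanobody display library ran 36–48 hours. The cells were then stained for 1 hour at 4 °C with 10% biotinylated, detergent-solubilized Sf9 membrane reagent, pulled down on streptavidin microbeads and FACS-sorted into low and high (top ~1%) gates on expression and reagent-binding fluorescence. Labels for polyreactivity follow the gate of origin.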
Turning to “QVQLVESGGGLVQAGGSLRLSCAASGITFTGYAMGWYRQAPGKERELVAVISETGGSTYADSVKGRFTISRDNAKNTVYLQMNSLKPEDTAVYYCAADPHDTVRHDALVELEYWGQGTQVTVSS”, the “polyreactivity (PSR sort gate)” value was “low polyreactivity”.
In the case of “QVQLVESGGGLVQAGGSLRLTCAASGSTDPYAMGWYRQAPGKERELVARIRYSGGSTYYADSVKGRCTISRDNAKNTVYFQMTSLKPEDTAVYYCAAQSYTYYHHYGYWGQGTQVTVSS” it was “high polyreactivity”; in that of “QDQLVESGRGIFKAGGSLRLSCAASGSIFGDNAMGWSRHAPGKDRELVAAISSGGPTYADSVKGRFTISRDNAKNTVYLQMNSLKAEDSAVYFCNATDGINPYDLTDFEFDYWGQGTEVTVSS”, “low polyreactivity”.
Under “QVQLVESGGGLVQAGGSLRLSCSASGTILYFYAMGWYRQAQGKERELVAAIDSGGSTDYADSVKGRFTISRYNAKNTVYLQMNSLKPEDTAVYYCAAYPWERYTWWYVYRGHVYWGQGTQVTVSS” stands “low polyreactivity”; under “QVQLVESVGGLVQAGGSLRLSCAASGSIFDYNGMGRYRQAPGKERELVATITLSTARTYYADSVKGRFTISRDNAKNTVYLQMNSLKPEDTAVYYCATRYPKFRRRNYWGQGTQVTVSS”, “high polyreactivity”.
On to “QVQLVESGGGLVQAGGSLRLSCAASGLIFSTYAMGWYRQAPGKERELVAAITNSGGSTYYADSVKGRFTISRDNAKNTDYLQMNSLKPEDTAVYYCARRRSYRDNYWGQGTQVTVSS”, for which the “polyreactivity (PSR sort gate)” value is on record as “high polyreactivity”.
Take “QVQLVESGGGLVQAGGSLRLSCAASGRILPGNAMGWYRQAPGKERELVATITNGGRTYYADSVKGRFAISRDNAKNTVYLQMNSLKPVDTAVYYCAAVVVRFIYVYFEFEWGQGTQVTVSS”: the “polyreactivity (PSR sort gate)” value was “low polyreactivity”.
In the case of “QVQLVESGGGLVQAGGSLRLSCAASGFTFQYYAMGWYRQAPGKERELVAVISRSGGRTYYADSVKVRFTISRDNAKNTVYLQMNSLKPEDTAVYYCAALSQPGQSDDKQYDYWGQGTQVTVSS” it was “high polyreactivity”.
Under “QVQLVESGGGLVQAGGSLRLSCAASGSIFRTNTMGWYRQAPGKERELVAAITAIGDSTYYADSVKGRFTISRDNAKNTVYLQMNSLKPEDTAVYYCAAEKVSWGYHFYSSYDYWGQGTQVTVSS” stands “low polyreactivity”; under “QVQLVESGGALVQAGGSLRLSCAASGSTFNRNAMGWYRPAPGKERELVAAISSRGGSTFYADSVMGRFTISRDNATNTVYLQMNSLKPEDTAVYYCNALIVSSWVRYDYWRQGTQVTVSS”, “high polyreactivity”.
In the case of “QVQLVESGGGLLQAGGSLRLSCAASGSIYTPYAMGWSRQAPGKERELVATITQSGSSTYYADSVKGRFTISRDNAKNSVYLQMNSLKPEDTAVYYCAADVQNISFDYWGQGTQVTVSS” it was “low polyreactivity”; in that of “QVQLVESGGGLVQAGGSLRLSCAASGITFDKYAMGWYRQAPGKERELVARITSGGGTNYADSVKGRFTISRDNAKNTVYLQMNSLKPEDTAVYSCNKRTSPKRFDYWGQGTQVTVSS”, “high polyreactivity”; in that of “QVQLVESGGGLVQSGGSLRLSCAASGSIFYLYAMGWYRQAPGKERELVAAISWTGGSSYYADSVKGRFTISRDNAKNTVYLQMNSLKPEDTAVYYCAADRVLGGPQPGGSSFRGDYWGQGTQVTVSS”, “low polyreactivity”.
Consider “QVQLVESGGGLVQAGGSLRLSCAASGRISRYNTLGWSSQAPGKERELVAVISWSGASTYYADSVKGRFTISRDNAKNTVYLQMNSLKPEDTAVYYCAAYYRWYNYDYWGQGTQVTVSS”, for which the “polyreactivity (PSR sort gate)” value is on record as “high polyreactivity”.
Under “QVQLVESGGGLVQEGGSLRLSCAASGRIFKYNAMGWYRQAPGKERELVAAISSSGGSTYYADSVKGRFTISRDNAKNTVYLHMNSLKPEDTAVYYCAARYNSRVYRYDYWGQGTQVTVSS” stands “high polyreactivity”; under “QVQLVESGGGLVQAGGSLRLSCAASGSIFSWNAMGWYRPAPGKEREFVAAISYGSTSTTYADSVKGRFTISRDNAKNTVYLQMNSLKPEDTAVYYCAAVPRRSGHQRWGATYYYWGQGTQVTVSS”, “high polyreactivity”.
For the sequence “QVQLVESGGGLVQAGGSLRLSCAASGRTFLYNAMGWYSQATWKERELVASITRRGGTTYYADSVKGRFTISRDNAKNTVYLQMNSLKPEDTAVYYCNAQPGISYYYYGHWYGYWGQGTQVTVSS”, the “polyreactivity (PSR sort gate)” value is recorded as “high polyreactivity”.
In the case of “QVQLVESGGGLVQAGGSLRLSCAASGSTFWLYAMGRYRPAPGKERELVASISSRGGSTYYADSVKGRFTISRDNAKNTVYLQMNSLKPEDTAVYYCAAKDIRYDDDYWGQGTQVTVSS”, the “polyreactivity (PSR sort gate)” value is “low polyreactivity”.
Under “QVQLVESGGGLVPAGGSLRLSCAASGRIFFRNAMGWYRQAPGKERELVAAITYSGGSTYYADSVKGRFTISRDNAKNTVYLQMNSLKPEDTAVSYCAAGYWFSYSRVTRYDYWGQGTQVTVSS” stands “high polyreactivity”.
Consider “QVQLVESGGGLVQAGGSLRLSCAASGFIFPQYAMGWYRQAPGKERELVAAISTGGGSTYYADSVKGRFTISRDNAKNTVYLQMNSLKPEDTAVYYCAKYVYRFARYNLDYWGQGTQVTVSS”, for which the “polyreactivity (PSR sort gate)” value is “high polyreactivity”.
Under “QVQLVESGGGLVQAGGSLRLSCAASGFTFAYYAMGSYRQAPGKERELVAAIRKSGATTYYADSVKGRFTISRDNSKNTVYLQMISLKPEDTAVYYCNAVVKSSSRGSIAHPGYDYWGQGTQVTVSS” stands “high polyreactivity”; under “QVQLVESGGGLLQAGGSLRLSCAASGRIFGRNTKGWYRQAPGKERELVAVISWRGGSTYYADSVKGRFTISRDNAKNSVYLQMNSLKPEDTAVYYCNAKYPFSRRGDYWGQGTQVTVSS”, “high polyreactivity”.
Consider “QVQLVESGGGLVQAGGSLRLSCAASGFIFGPYAMGWYRTAPGKERELVAAITYSSGSTYYADSVKGRFTISRDNAKNTVYLQMNSLKPEDTAVYYCNAEFWYETLYEYDYWGQGTQVTVSS”, for which the “polyreactivity (PSR sort gate)” value is reported as “high polyreactivity”.
In the case of “QVQLVESWGVLVQAGGSLRLSCAAYGSIFRLYAMGSYRTAPGTARELVAAITSGDSTNYADSVKGRFTISRDNAKNTVYLQMNSLKPEDTAVYYCNSGRISVRVTSEQYAYHEYYYWGQGTQVTVSS” it was “high polyreactivity”; in that of “QVQLVESGGGLVQAGGSRRLSCAASGLIFDKAMGWYRQAPGKQREFVAAITYSTGSTYYADSVKGRFTISRDNAKNTVYLQMNSLKPEDTAVYYCAKDGSGHGTERDYWGQGTQVTVSS”, “low polyreactivity”.
In the case of “QVQLVESGGGLVQAGGSLRLSCAASGYTFPLYAMGWYRQAPGTERELVADINIGGASTYYADSVKGRFTISRDNAKNTVYLQMNSLKPEDTAVYYCAADYTVRVVATYDYWGQGTQVTVSS” it was “low polyreactivity”; in that of “QVQLVESGGGLVQAGGSLRLSCAASGILFYLNAMGWYRQAPGKERELVASISTGGGTNYADSVKGRFTISRDYAKNTVYLQMNSLKPEDTAFYYCAAKRRNTYTLYYYWGQGTQVTVSS”, “high polyreactivity”.
In the case of “QVQLVESGGGLVQAGGSLRLSCAASGRTFSGYAMGWYRQAPGKERELVAAITNRGGTYYADSVKGRFTISRDNAKNTVYVQMNSLKPEDTAVYSCAAYKYYARWVRGYDSWGQGTQVTVSS” it was “high polyreactivity”.
Regarding “QVQLVESGGGLVQAGGSLRLSCAASGRIFPWYAMGWYRQAPGKERELVAAITSGGGSTSYADSVKGRFTISRDNAKNTVYLQMNRLKPEDTAVYYCAARRWISSHSYKYGYWGQGTQVTVSS”, the “polyreactivity (PSR sort gate)” value was “high polyreactivity”.
In the case of “QDQLVESGGGLVQAGGSLRLSCAASGSIFSGYAMGWYRQPPGKERELVAAISRRGTSTYYADSVKGRFTISRDNAKNTVYLQMNSLKPEDTAFYYCAATYGGRQSYGGFDYWGQGTQVTVSS” it was “high polyreactivity”.
